This is an account of results in paper PMC11603127 (Computational and Structural Biotechnology Journal, 2024).

The target in test [1] is T1, Recombinant NAA10 (wild type) (human, UniProt P41227 1-235, labeled with Monolith NT Protein Labeling Kit RED).
T1 sequence: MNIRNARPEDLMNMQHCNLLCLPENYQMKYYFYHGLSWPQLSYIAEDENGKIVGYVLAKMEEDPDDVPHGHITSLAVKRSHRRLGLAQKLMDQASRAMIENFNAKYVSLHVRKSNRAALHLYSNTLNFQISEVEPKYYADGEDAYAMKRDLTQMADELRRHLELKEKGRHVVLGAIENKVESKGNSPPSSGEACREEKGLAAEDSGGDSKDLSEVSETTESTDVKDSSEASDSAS
Briefly: MST.

The target in test [2] is T2, Recombinant NAA10^F128L (human, UniProt P41227 1-235, F128L, labeled with Monolith NT Protein Labeling Kit RED).
T2 sequence: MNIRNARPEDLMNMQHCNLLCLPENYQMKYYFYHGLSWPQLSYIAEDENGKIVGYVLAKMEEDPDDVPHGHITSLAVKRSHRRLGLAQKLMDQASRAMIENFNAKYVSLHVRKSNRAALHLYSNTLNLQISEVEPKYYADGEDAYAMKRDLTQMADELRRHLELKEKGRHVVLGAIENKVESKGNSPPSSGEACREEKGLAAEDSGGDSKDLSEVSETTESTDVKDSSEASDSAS
Description: MST.

B1: EEEI24 oligopeptide (peptide)
peptide: EEEIAALRWGRPVGRRRRPVRVYP
For B1, the binding result in test [1] and in test [2] was “binds” in each case.
